The target in assay [1] is T1, HLA-A*0201 on the surface of T2 cells (human).
T1 construct: Class I molecule that the test peptides load in the HLA-A2 stabilization assay; also called HLA-A2
Nature of the assay: HLA-A2 stabilization on T2 cells, BB7.2 staining, flow cytometry.
Procedure: Aliquots of 2×10⁵ T2 cells were cultured in serum-free RPMI media supplemented with human β₂-microglobulin at 5 μg/mL plus the test peptide.

In assay [2] the target is T2, 5T4 17-25 variant R1A (alanine-substituted) peptide on HLA-A*02:01 (human).
T2 peptide: ALARLALVL
The assay is described as follows: killing.

Assay [3] addresses T3, 5T4 17-25 variant R4A (alanine-substituted) peptide on HLA-A*02:01 (human).
T3 peptide: RLAALALVL
The assay is described as follows: killing.

The target in assay [4] is T4, DDX3Y peptide on HLA-A*02:01 (human).
T4 peptide: FLLDILGAT
The assay is described as follows: killing.

Assay [5] has as its target T5, UTY peptide on HLA-A*02:01 (human).
T5 peptide: KAFQDVLYV
Nature of the assay: killing.

Assay [6] addresses T6, 5T4 (trophoblast glycoprotein, TPBG) peptide on HLA-A*02:01 (human).
T6 peptide: RLARLALVL
Nature of the assay: multimer staining.

B1: L5A synthetic peptide RLARAALVL (peptide)
peptide: RLARAALVL
notes: Alanine-substituted variant of 5T4p17
B1: the binding result in assay [1] is listed as “no binding”.

B2: L7A synthetic peptide RLARLAAVL (peptide)
peptide: RLARLAAVL
notes: as for B1
Turning to B2, the binding result in assay [1] is “no binding”.

B3: R1A synthetic peptide ALARLALVL (peptide)
peptide: ALARLALVL
notes: as for B1
In the case of B3, the binding result in assay [1] is recorded as “binds”.

B4: R4A synthetic peptide RLAALALVL (peptide)
peptide: RLAALALVL
notes: as for B1
Turning to B4, the binding result in assay [1] is given as “binds”.

B5: V8A synthetic peptide RLARLALAL (peptide)
peptide: RLARLALAL
notes: as for B1
As for B5, the binding result in assay [1] was “no binding”.

B6: Clone15-3F10 (TCR, V domains shown)
Valpha: AQTVTQSQPEMSVQEAETVTLSCTYDTSENNYYLFWYKQPPSRQMILVIRQEAYKQQNATENRFSVNFQKAAKSFSLKISDSQLGDTAMYFCASMYSGGGADGLTFGKGTHLIIQP
Vbeta: EAQVTQNPRYLITVTGKKLTVTCSQNMNHEYMSWYRQDPGLGLRQIYYSMNVEVTDKGDVPEGYKVSRKEKRNFPLILESPSPNQTSLYFCASSFFSNTGELFFGEGSRLTVL
In the case of B6, the binding result in assay [2] is “recognises”; in assay [3], “no recognition”; in assay [4], “no recognition”; in assay [5], “no recognition”; in assay [6], “recognises”.

B7: Clone19-5C2 (TCR, V domains shown)
Valpha: AQTVTQSQPEMSVQEAETVTLSCTYDTSESDYYLFWYKQPPSRQMILVIRQEAYKQQNATENRFSVNFQKAAKSFSLKISDSQLGDAAMYFCAYRSGSDGGSQGNLIFGKGTKLSVKP
Vbeta: ETGVTQTPRHLVMGMTNKKSLKCEQHLGHNAMYWYKQSAKKPLELMFVYSLEERVENNSVPSRFSPECPNSSHLFLHLHTLQPEDSALYLCASSQVSGYEQYFGPGTRLTVT
In the case of B7, the binding result was “no recognition” in assay [2]; “no recognition” in assay [3]; “no recognition” in assay [4]; “no recognition” in assay [5]; “recognises” in assay [6].

B8: Clone2-6B8 (TCR, V domains shown)
Valpha: QKEVEQNSGPLSVPEGAIASLNCTYSDRGSQSFFWYRQYSGKSPELIMFIYSNGDKEDGRFTAQLNKASQYVSLLIRDSQPSDSATYLCAVPDDAGNMLTFGGGTRLMVKP
Vbeta: DAGITQSPRYKITETGRQVTLMCHQTWSHSYMFWYRQDLGHGLRLIYYSAAADITDKGEVPDGYVVSRSKTENFPLTLESATRSQTSVYFCASSELPAGGTNEQFFGPGTRLTVL
Take B8: the binding result in assay [2] is given as “recognises”; in assay [3] it was “no recognition”; in assay [4] it was “no recognition”; in assay [5], “no recognition”; in assay [6] it was “recognises”.

B9: Clone3-6C3 (TCR, V domains shown)
Valpha: AQTVTQSQPEMSVQEAETVTLSCTYDTSESDYYLFWYKQPPSRQMILVIRQEAYKQQNATENRFSVNFQKAAKSFSLKISDSQLGDAAMYFCSSGGGADGLTFGKGTHLIIQP
Vbeta: NAGVTQTPKFRVLKTGQSMTLLCAQDMNHEYMYWYRQDPGMGLRLIHYSVGEGTTAKGEVPDGYNVSRLKKQNFLLGLESAAPSQTSVYFCASMDLAFKQYFGPGTRLTVT
B9: the binding result in assay [2] is on record as “no recognition”; in assay [3], “no recognition”; in assay [4] it was “no recognition”; in assay [5] it was “no recognition”; in assay [6] it was “recognises”.

B10: Clone21-7A10 (TCR, V domains shown)
Valpha: GQSLEQPSEVTAVEGAIVQINCTYQTSGFYGLSWYQQHDGGAPTFLSYNALDGLEETGRFSSFLSRSDSYGYLLLQELQMKDSASYFCAVRDDYGQNFVFGPGTRLSVLP
Vbeta: NAGVMQNPRHLVRRRGQEARLRCSPMKGHSHVYWYRQLPEEGLKFMVYLQKENIIDESGMPKERFSAEFPKEGPSILRIQQVVRGDSAAYFCASSPQGDNEQFFGPGTRLTVL
On to B10, for which the binding result in assay [2] is on record as “recognises”; in assay [3], “no recognition”; in assay [4] it was “no recognition”; in assay [5] it was “no recognition”; in assay [6], “recognises”.

(Values after patent publication US20220267403A1 (FRED HUTCHINSON CANCER RESEARCH CENTER, published 2022).)
